Here are results for two substances from publication PMC8079274.

This test concerns the target KSR1 in KSR1+/+ mouse embryo fibroblasts (cells that overexpress KSR1) (UniProt Q61097). Briefly: proximity ligation; fixed serum-starved KSR1+/+ MEFs, anti-KSR1 with anti-pERK or anti-ERK antibodies, Duolink; vehicle or 40 μM CGS9343B for 16 h, then vehicle or 100 ng/ml EGF for 5 min; spots per cell, vehicle set to 1.

Chain of KSR1 in KSR1+/+ mouse embryo fibroblasts (cells that overexpress KSR1) (Q61097 whole entry): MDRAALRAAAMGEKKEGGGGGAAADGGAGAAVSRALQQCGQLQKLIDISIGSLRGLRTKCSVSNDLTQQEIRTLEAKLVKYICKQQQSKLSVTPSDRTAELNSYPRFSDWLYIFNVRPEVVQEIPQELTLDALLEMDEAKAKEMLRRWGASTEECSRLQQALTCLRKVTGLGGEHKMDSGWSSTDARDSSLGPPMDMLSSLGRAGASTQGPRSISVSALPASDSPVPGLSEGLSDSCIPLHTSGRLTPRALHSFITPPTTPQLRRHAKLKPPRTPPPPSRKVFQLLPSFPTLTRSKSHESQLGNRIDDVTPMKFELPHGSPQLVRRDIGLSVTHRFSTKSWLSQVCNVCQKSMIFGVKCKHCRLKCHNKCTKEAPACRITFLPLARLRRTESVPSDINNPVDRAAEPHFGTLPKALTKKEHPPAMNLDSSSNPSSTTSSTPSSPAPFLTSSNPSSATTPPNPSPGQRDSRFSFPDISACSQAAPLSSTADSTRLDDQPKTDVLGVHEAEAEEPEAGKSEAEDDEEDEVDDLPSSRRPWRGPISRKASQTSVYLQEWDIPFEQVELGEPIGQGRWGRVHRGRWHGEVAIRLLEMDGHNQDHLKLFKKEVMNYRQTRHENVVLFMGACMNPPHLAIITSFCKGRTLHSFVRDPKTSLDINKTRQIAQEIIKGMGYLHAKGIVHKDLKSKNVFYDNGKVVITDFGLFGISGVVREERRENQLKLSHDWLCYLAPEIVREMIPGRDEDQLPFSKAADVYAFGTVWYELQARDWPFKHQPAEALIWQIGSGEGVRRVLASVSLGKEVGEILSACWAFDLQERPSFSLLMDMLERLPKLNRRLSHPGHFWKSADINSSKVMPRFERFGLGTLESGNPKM

As for “ERK (extracellular signal-regulated kinase), total ERK (from UniProt P63085 1-358) (natural protein)”, the fold change of PLA spots per cell, EGF against vehicle was determined as 4.36 fold.
Next, “pERK (phosphorylated ERK) (from UniProt P63085 1-358) (natural protein)”: 6.2 fold.
